What was measured:
Assay in all cases: cell-based or functional assay
[1] = target: TSHR with Asp232 mutated to Ala expressed in CHO cells (human) (UniProt P16473)
[2] = target: wild type TSHR expressed in CHO cells (human) (UniProt P16473)
[3] = target: TSHR with Lys209 mutated to Ala (human) (UniProt P16473)
wild type TSHR (human) = wild type TSHR (human) (UniProt P16473)
[4] = target: TSHR with Asp151 mutated to Ala, expressed in CHO cells (human) (UniProt P16473)
[5] = target: wild type TSHR (human TSH receptor) expressed in CHO cells (human) (UniProt P16473)
[6] = target: TSHR with Lys129 mutated to Ala, expressed in CHO cells (human) (UniProt P16473)

TSH (ligand)
% inhibition of TSH stimulation; TSH (2), run at the end of assay [1]: 0% | Mutated/wild type (%) of cyclic AMP produced; TSH 3 ng/mL [1]: 70% | Mutated/wild type (%) of cyclic AMP produced; TSH (2) 3 ng/mL, run at the end of assay [1]: 76% | % inhibition of TSH stimulation; TSH (2), run at the end of assay [2]: 0% | % inhibition of TSH stimulation, TSH (2) run at the end of assay, mutated TSHR [3]: 18% | Cyclic AMP produced (pmol/mL), TSH 3 ng/mL, mutated TSHR [3]: 57.9 pmol/mL | Cyclic AMP produced (pmol/mL), TSH (2) 3 ng/mL run at the end of assay, mutated TSHR [3]: 47.7 pmol/mL | Mutated/wild type (%) of cyclic AMP produced; TSH 3 ng/mL [3]: 73% | Mutated/wild type (%) of cyclic AMP produced; TSH (2) 3 ng/mL, run at the end of assay [3]: 52% | Cyclic AMP produced (pmol/mL), TSH 3 ng/mL, wild type TSHR (wild type TSHR (human)): 79 pmol/mL | Cyclic AMP produced (pmol/mL), TSH (2) 3 ng/mL run at the end of assay, wild type TSHR (wild type TSHR (human)): 91.5 pmol/mL | % inhibition of TSH stimulation, mutated TSHR; TSH (2) (run at the end of assay) [4]: 9% | Mutated/Wild type (%) of cyclic AMP produced, TSH 0.01 ng/mL [4]: 209% | Mutated/Wild type (%) of cyclic AMP produced, TSH 0.03 ng/mL [4]: 149% | Mutated/Wild type (%) of cyclic AMP produced, TSH 0.1 ng/mL [4]: 99% | Mutated/Wild type (%) of cyclic AMP produced, TSH 0.3 ng/mL [4]: 80% | Mutated/Wild type (%) of cyclic AMP produced, TSH 1 ng/mL [4]: 66% | Mutated/wild type (%) of cyclic AMP produced; TSH 3 ng/mL [4]: 68% | Mutated/wild type (%) of cyclic AMP produced; test sample: TSH (3 ng/mL) [4]: 62% | Mutated/wild type (%) of cyclic AMP produced; test sample: TSH (2) (3 ng/mL, run at the end of assay) [4]: 44% | % inhibition of TSH stimulation; TSH (2), run at the end of assay [5]: 0% | % inhibition of TSH stimulation; TSH (2), run at the end of assay; Experiment 1 [5]: 8% | % inhibition of TSH stimulation; TSH (2), run at the end of assay; Experiment 2 [5]: 0% | Cyclic AMP produced (pmol/mL), TSH 0.01 ng/mL [5]: 2.45 pmol/mL | Cyclic AMP produced (pmol/mL), TSH 0.01 ng/mL, Experiment 1 [5]: 1.86 pmol/mL | Cyclic AMP produced (pmol/mL), TSH 0.01 ng/mL, Experiment 2 [5]: 2.49 pmol/mL | Cyclic AMP produced (pmol/mL), TSH 0.03 ng/mL [5]: 4.78 pmol/mL | Cyclic AMP produced (pmol/mL), TSH 0.03 ng/mL, Experiment 1 [5]: 3.32 pmol/mL | Cyclic AMP produced (pmol/mL), TSH 0.03 ng/mL, Experiment 2 [5]: 5.12 pmol/mL | Cyclic AMP produced (pmol/mL), TSH 0.1 ng/mL [5]: 16.2 pmol/mL | Cyclic AMP produced (pmol/mL), TSH 0.1 ng/mL, Experiment 1 [5]: 14.6 pmol/mL | Cyclic AMP produced (pmol/mL), TSH 0.1 ng/mL, Experiment 2 [5]: 13.7 pmol/mL | Cyclic AMP produced (pmol/mL), TSH 0.3 ng/mL [5]: 44.3 pmol/mL | Cyclic AMP produced (pmol/mL), TSH 0.3 ng/mL, Experiment 1 [5]: 48.5 pmol/mL | Cyclic AMP produced (pmol/mL), TSH 0.3 ng/mL, Experiment 2 [5]: 39.9 pmol/mL | Cyclic AMP produced (pmol/mL), TSH 1 ng/mL [5]: 77.2 pmol/mL | Cyclic AMP produced (pmol/mL), TSH 1 ng/mL, Experiment 1 [5]: 91.2 pmol/mL | Cyclic AMP produced (pmol/mL), TSH 1 ng/mL, Experiment 2 [5]: 74.3 pmol/mL | Cyclic AMP produced (pmol/mL), TSH 3 ng/mL [5]: 95.5 pmol/mL | Cyclic AMP produced (pmol/mL), TSH 3 ng/mL, Experiment 1 [5]: 119 pmol/mL | Cyclic AMP produced (pmol/mL), TSH 3 ng/mL, Experiment 2 [5]: 88.3 pmol/mL | Cyclic AMP produced (pmol/mL), wild type TSHR, TSH 0.01 ng/mL [5]: 2.48 pmol/mL | Cyclic AMP produced (pmol/mL), wild type TSHR, TSH 0.01 ng/mL, Experiment 1 [5]: 2.6 pmol/mL | Cyclic AMP produced (pmol/mL), wild type TSHR, TSH 0.01 ng/mL, Experiment 2 [5]: 3.89 pmol/mL | Cyclic AMP produced (pmol/mL), wild type TSHR, TSH 0.03 ng/mL [5]: 4.62 pmol/mL | Cyclic AMP produced (pmol/mL), wild type TSHR, TSH 0.03 ng/mL, Experiment 1 [5]: 4.27 pmol/mL | Cyclic AMP produced (pmol/mL), wild type TSHR, TSH 0.03 ng/mL, Experiment 2 [5]: 5.52 pmol/mL | Cyclic AMP produced (pmol/mL), wild type TSHR, TSH 0.1 ng/mL [5]: 17.6 pmol/mL | Cyclic AMP produced (pmol/mL), wild type TSHR, TSH 0.1 ng/mL, Experiment 1 [5]: 10.9 pmol/mL | Cyclic AMP produced (pmol/mL), wild type TSHR, TSH 0.1 ng/mL, Experiment 2 [5]: 13.3 pmol/mL | Cyclic AMP produced (pmol/mL), wild type TSHR, TSH 0.3 ng/mL [5]: 40.4 pmol/mL | Cyclic AMP produced (pmol/mL), wild type TSHR, TSH 0.3 ng/mL, Experiment 1 [5]: 32.3 pmol/mL | Cyclic AMP produced (pmol/mL), wild type TSHR, TSH 0.3 ng/mL, Experiment 2 [5]: 35.4 pmol/mL | Cyclic AMP produced (pmol/mL), wild type TSHR, TSH 1 ng/mL [5]: 92.5 pmol/mL | Cyclic AMP produced (pmol/mL), wild type TSHR, TSH 1 ng/mL, Experiment 1 [5]: 85 pmol/mL | Cyclic AMP produced (pmol/mL), wild type TSHR, TSH 1 ng/mL, Experiment 2 [5]: 82.1 pmol/mL | Cyclic AMP produced (pmol/mL), wild type TSHR, TSH 3 ng/mL [5]: 104 pmol/mL | Cyclic AMP produced (pmol/mL), wild type TSHR, TSH 3 ng/mL, Experiment 1 [5]: 124 pmol/mL | Cyclic AMP produced (pmol/mL), wild type TSHR, TSH 3 ng/mL, Experiment 2 [5]: 91.7 pmol/mL | Cyclic AMP produced, wild type TSHR, TSH 0.01 ng/mL [5]: 1.41 pmol/mL | Cyclic AMP produced, wild type TSHR, TSH 0.03 ng/mL [5]: 1.99 pmol/mL | Cyclic AMP produced, wild type TSHR, TSH 0.1 ng/mL [5]: 5.54 pmol/mL | Cyclic AMP produced, wild type TSHR, TSH 0.3 ng/mL [5]: 16.3 pmol/mL | Cyclic AMP produced, wild type TSHR, TSH 1 ng/mL [5]: 44.2 pmol/mL | Cyclic AMP produced, wild type TSHR, TSH 3 ng/mL [5]: 53.9 pmol/mL | % inhibition of TSH stimulation; TSH (2) control [6]: 3% | Cyclic AMP produced; TSH 3 ng/mL [6]: 49.2 pmol/mL

Source: patent US20110300138A1 (published 2011)
